Data reported in the nanobody polyreactivity screen of Harvey et al. (2022).

experiment: yeast display, Sf9 membrane polyspecificity reagent, FACS + sequencing; frameworks hold sequencing errors
Outline: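 Polyreactivity labels are assigned by the sorting gate from which each nanobody was recovered. The gates were low and high (top ~1%), set on anti-HA fluorescence for expression and streptavidin fluorescence for reagent binding. Before sorting, galactose-induced (36–48 hours) yeast display cells were stained for 1 hour at 4 °C with 10% biotinylated, detergent-solubilized Sf9 membrane reagent.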

| Sequence | polyreactivity (PSR sort gate) |
| --- | --- |
| QVQLVESGGGLVHAGGSLRLSCAASGSIFCTNVMGWYRQAPGKERELVAAISYSDGSTYYADSVKGRFTISRDNAKNTVYLQMNILKPEDSAVYYCADYLYYYWGGYDYWGQGTQVTVSS | low polyreactivity |
| QVQLVESGGGLVHAGGSLRLSCAASGSIFDFNAMGWYRQVPGKERELVAAITSGGSTNYADSVKGRFTISRDNAKNTVYLQMNSLKPEDTAVYYCAARPARGASQGGYVRPWWYDSWGQGTQVTVSS | low polyreactivity |
| QVQLVESGGGLVHAGGSLRLSCAASGSIFQYNAMGWYRQAPGKERELVATISSGGSTNYADSVKGRFTISRDNAKNTVYLQMNSLKPEDTAVYYCAAVVIVFYYAPNYWGDIEYGYWGQGTQVTVSS | low polyreactivity |
| QVQLVESGGGLVHAGGSLRLSCAASGSIFSIYAMGWYRQAPGTERELVAAITKSGGSTYYADSVKGRFTISRDNAKNTVYLQMNSLKPEDTAVYYCAAEPQHYVGYYYWGQGNQVTVSS | high polyreactivity |
| QVQLVESGGGLVHAGGSLRLSCAASGSILKYYAMGWYRQAPGKERELVAAITSRGGSTYYADSVKGRFTISRDNAKNTVYLQMNSLKPEDTAVYYCNRVYLGYFRYDYWGQGTQVTVSS | high polyreactivity |
| QVQLVESGGGLVHAGGSLRLSCAASGSTFGDNAMRLYRQAPGKERELVAVISTAGSTYYADSVKGRFTISRDNAKNTVYLQMNSLKPEDTAVYYCAAAYYVWLYGFWYRRYDYWGQGTQVTVSS | low polyreactivity |
| QVQLVESGGGLVHAGGSLRLSCAASGSTFRSYAMGWYRQAPGKERELVARISYRTGSTYYADSVKGRFTISRDYAKNTVYLQMNSLKPEDTAVYYCATRGSYVGGLYDYWGQGTQVTVSS | high polyreactivity |
| QVQLVESGGGLVHAGGSLRLSCAASGSTFYGYTMGWYRQAPGKERELVAVITSGGSTYYADSVKGRFTISRDNAKNTVYLQMNSLKPEDTAVYYCAKRYGYPAYGRPWRIGRTYDYWGQGTQVTVSS | low polyreactivity |
| QVQLVESGGGLVHAGGSLRLSCAASGSTLGYNVMGWYRQAPGKERELVAAISGDGSTNYADSVKGRFTISRDNAKNTVYLQMNSLKREDTEVYYCNAPFWGYRTSFSYPVVQRFDYWGQGTHVTVSS | low polyreactivity |
| QVQLVESGGGLVHAGGSLRLSCAASGSTLQVYAMGWYREAPGIERELVAVITFSGGRTYYADSVKGRFTISRDTAKNTVYLQMNSLKPEDTADYYPAARYYWGQGTQVTVSS | high polyreactivity |
| QVQLVESGGGLVHAGGSLRLSCAASGSTLSYAMGWYRQAPGKERELVAAISRSGGSTYYADSVKGRFTISRDNAKNTVYLQMNSLKPEDTAVYYCAADPYPSYANGGYYWGQGTQVTVSS | high polyreactivity |
| QVQLVESGGGLVHAGGSLRLSCAASGSTYYGNAMGWYIQAPRKERELVAAINRGGSTYYADSVKGRFTISRDNAKNTVYLQMKSLKPEDTAVYYCAADYEYLPKTRDGYYWGQGTQVTVSS | low polyreactivity |
| QVQLVESGGGLVHAGGSLRLSCAASGYTFSRNAMGWYRQAPGKERELVAAITGSGGSTYYADSVKGRFTISRDNAKNTVYLQMNSLKPEDTAVYYCATEVKRGYVGFDYWGQGTQVTVSS | low polyreactivity |
| QVQLVESGGGLVHAGGSLRLSCAAYGFIFYDYVMGWYRQAPGKERELVAAITGSGGGTYYADSVKGRFTISRDNAKNTVYLQMNSLKPDATAVYYCAADFISVYGYEYYYWGQVTQVTVSS | high polyreactivity |
| QVQLVESGGGLVHAGGSLRLSCAAYGIIFQYYTMGWYRQAPGKERELVASITYDGDSTYYADSVKGRFTISLDNAKNTVYLQMNSLKPEDTALYYCAAVANGFWTYEYWGQGTQVTVSS | low polyreactivity |
| QVQLVESGGGLVHAGGSLRLSCAAYGRTYGTNAMGWYRQAPVKERELVAAIRRGGSRTYYADSVKGRFTISRDYAKNTVYLPMNSLKPEDTAVYYCAAKLRAYVDPFEYWGQGTQVTVSS | low polyreactivity |
| QVQLVESGGGLVHAGGSLRLSCADSGRIFYANALGWSRQSPGRERELVAAISSGGSTYYADSVKGRFTSSRDNAKNTVYLQMNSLKPEDTAVYYCAVYTLKKVRPEYDYWGQGTQVTVSS | low polyreactivity |
